Results on 6 molecules are retold here after patent US20140249083A1 (THERATECHNOLOGIES, published 2014).

*1 amine or outer side, *2 acyl side, *3 side chain or, on linkers, in order; H or OH if unused. Primed or numbered codes have the meaning given here. [ ]: non-standard residue; d: D form. The star is where a group is joined. βAsp = O=C(O)[C@H](CC(=O)[*:2])N[*:1]; Met(O) = CS(=O)CC[C@H](N)C(=O)O; Hexenoyl(3E) = CC/C=C/CC(=O)*; Asu′ = not defined here

In the assay the target is T1, human GRF receptor (human, UniProt Q02643 23-423).
T1 sequence (looked up): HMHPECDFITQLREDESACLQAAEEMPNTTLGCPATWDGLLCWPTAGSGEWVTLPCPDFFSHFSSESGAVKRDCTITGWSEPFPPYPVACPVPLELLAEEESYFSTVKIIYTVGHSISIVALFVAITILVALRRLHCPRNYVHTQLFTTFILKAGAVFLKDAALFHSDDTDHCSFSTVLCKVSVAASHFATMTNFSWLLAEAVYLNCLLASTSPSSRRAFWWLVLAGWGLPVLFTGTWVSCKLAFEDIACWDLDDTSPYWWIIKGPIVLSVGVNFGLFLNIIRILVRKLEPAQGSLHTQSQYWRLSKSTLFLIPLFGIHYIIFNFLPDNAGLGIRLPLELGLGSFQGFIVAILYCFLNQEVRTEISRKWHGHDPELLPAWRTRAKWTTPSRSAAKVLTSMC
Briefly: cell-based or functional assay.
{Hexenoyl(3E)}-YADAIFTDSYRKVLGQLSARKLLQDIMSRQQGESNQERGARARL-NH2 [TH9507 Asp8]: the EC50 (nM), alkaline phosphatase reporter gene assay is 0.08 nM; the EMAX (%), alkaline phosphatase reporter gene assay worked out at 114%; the SNR (signal to noise ratio), alkaline phosphatase reporter gene assay was 25.3.
As to {Hexenoyl(3E)}-YADAIFTNSYRKVLGQLSARKLLQDI[Met(O)]SRQQGESNQERGARARL-NH2 [N-Hex-hGRF[1-44]Met[O]27 amide], the “EC50 (nM), alkaline phosphatase reporter gene assay” value (“EC50 (nM)” for short) is 0.16 nM.
As to {Hexenoyl(3E)}-YA[Asu′]AIFTNSYRKVLGQLSARKLLQDIMSRQQGESNQERGARARL-NH2 (reading uncertain) [TH9507 cyclic form at Asp^3], the “EC50 (nM)” value stood at 0.2 nM; the “EMAX (%), alkaline phosphatase reporter gene assay” value was found to be 95.7%; the “SNR (signal to noise ratio), alkaline phosphatase reporter gene assay” value was determined as 21.3.
For the molecule {Hexenoyl(3E)}-YA[βAsp]AIFTNSYRKVLGQLSARKLLQDIMSRQQGESNQERGARARL-NH2 [TH9507 beta-Asp3], the “EC50 (nM)” value worked out at 4.24 nM and the “EMAX (%), alkaline phosphatase reporter gene assay” value was 116%.
For the molecule {Hexenoyl(3E)}-YADAIFT[βAsp]SYRKVLGQLSARKLLQDIMSRQQGESNQERGARARL-NH2 [TH9507 beta-Asp8], the EC50 (nM), alkaline phosphatase reporter gene assay was determined as 30 nM; the EC50 fold higher than TH9507, reporter gene assay was determined as 500 fold; the EMAX (%), alkaline phosphatase reporter gene assay was 120%; the SNR (signal to noise ratio), alkaline phosphatase reporter gene assay stood at 26.9.
Turning to {Hexenoyl(3E)}-YADAIFTNSYRKVLGQLSARKLLQDIMSRQQGESNQERGARARL-NH2 [[trans-3-hexenoyl]hGHRH (1-44) amide], the “EC50 (nM)” value worked out at 0.06 nM.
